Laboratory results: doi:10.1101/2021.11.04.467353, “SHIP164 is a Chorein Motif Containing Lipid Transport Protein that Controls Membrane Dynamics and Traffic at the Endosome-Golgi Interface” (bioRxiv, 2021)

Target: the molecule itself
Assay: negative-stain electron microscopy; 2D class averages of negatively stained purified protein; 3XFLAG-SHIP164_(Δ901-1099) at 50 nM, 2% uranyl acetate; the MBP fusion locates the N-termini at the two ends of the rod

B1: 3XFLAG-SHIP164^Δ901-1099 (natural protein)
chain: not shown
notes: SHIP164 (UHRF1BP1L), human, codon-optimised ORF from Genscript, lacking the predicted unstructured segment residues 901-1099; also called 3×FLAG-SHIP164_(Δ901-1099); UHRF1BP1L; source: Expi293F, transfected, purified (anti-FLAG M2 resin, Superdex 200 gel filtration); not shown: 3xFLAG, N-terminal, kept
stoichiometry N: 2

B2: MBP-SHIP164 fusion (MBP fused to the N-terminus of SHIP164_(Δ901–1099)) (natural protein)
chain: not shown
notes: SHIP164 (UHRF1BP1L), human, codon-optimised ORF, lacking residues 901-1099; Probably expressed in Expi293F and purified like m1, and it may also carry a 3xFLAG tag
stoichiometry N: 2
